Some results are limits rather than exact numbers.

The text below walks through data of patent US20220288204A1, “DOSAGE AND ADMINISTRATION OF ANTI-ERBB3 (HER3) MONOCLONAL ANTIBODIES TO TREAT TUMORS ASSOCIATED WITH NEUREGULIN 1 (NRG1) GENE FUSIONS” (ELEVATION ONCOLOGY, INC., priority 2021, published 2022).

One data set has as its system OV-10-0050 PDX tumors. Put plainly: HGSOC ovarian PDX model efficacy (CLU-NRG1). On the set-up: average tumor volume at the time of the last treatment: unit not given beside the values. The note with it: for average tumor volume at the time of the last treatment: day 27. Format: in vivo, mice. An excerpt: IHC characterization of the OV-10-0050 PDX model (FIG. 6A). H&E staining, WT1, and TP53 IHC (left to right). […] (FIG. 6B). Treatment was terminated on day 27 and animals were monitored for tumor regrowth until tumors reached maximum allowable size or until 90 days after treatment initiation. Results represent the mean tumor volume ±SEM. A zoom-in view on tumor volumes during the last 40 days of monitoring of seribantumab-treated groups (right). […] Change in the volume of individual tumors (day 27 vs. volume at start of treatment) (FIG. 6C).
Crushed PDX tumor samples were mixed with Matrigel (50%) and injected into the subcutaneous flank of 6-week-old female NSG (LUAD-0061AS3) or Balb/c nude (OV-10-0050) mice. When tumors reached approximately 100-150 mm3, mice were randomly assigned to groups of 5-8 and treatment was commenced. There were 2 mice per group with bilateral flank tumors for the protein phosphorylation/expression study in the LUAD-0061AS3 PDX model. Drugs were administered once, and then tumors were collected at 2, 24, and 168 hours posttreatment. Afatinib was administered by oral gavage once daily as a suspension (in 0.5% methylcellulose-0.4% Tween-80) on a 5-days-on and 2-days-off schedule. […] Mice were observed daily throughout the treatment period for signs of morbidity and mortality. Tumor length and width and animal weights were measured twice weekly. Tumor volume was calculated using the empirical formula V=length×width 2×0.52. The percentage change in tumor volume of each tumor was calculated using the formula [(V2−V1)/V1)]×100, where V1 is the starting tumor volume and V2 is the final tumor volume.
RT-PCR confirmed the presence of the CLU-NRG1 fusion. Xenograft tissue morphology and IHC markers (positive for WT1 and strong nuclear staining for TP53) were consistent with HGSOC histology (FIG. 6A; Kobel M, et al., Int. J. Gynecol. Pathol. 2016; 35:430-41). […] As with the above experiments in the NSCLC PDX model, the doses of seribantumab used here were lower than the dose that is used in patients. Treatment was terminated at day 27 and tumor growth was monitored for an additional 63 days (90 days after initiation of treatment or once tumors reached the maximum allowable size). The tumor volume as a function of time is illustrated in FIG. 6B, and the AUC was computed for each group to compare tumor volumes between groups at the last date of treatment. […] Forty-one days after treatment began, mice bearing vehicle- and afatinib-treated tumors were sacrificed because of the high tumor burden.

For data set [1] the following is noted: cited from earlier work.

B1: seribantumab: anti-ERBB3 (HER3) fully human monoclonal antibody; heavy and light chains SEQ ID NOs: 12 and 13 (antibody)
heavy: EVQLLESGGGLVQPGGSLRLSCAASGFTFSHYVMAWVRQAPGKGLEWVSSISSSGGWTLYADSVKGRFTISRDNSKNTLYLQMNSLRAEDTAVYYCTRGLKMATIFDYWGQGTLVTVSSASTKGPSVFPLAPCSRSTSESTAALGCLVKDYFPEPVTVSWNSGALTSGVHTFPAVLQSSGLYSLSSVVTVPSSNFGTQTYTCNVDHKPSNTKVDKTVERKCCVECPPCPAPPVAGPSVFLFPPKPKDTLMISRTPEVTCVVVDVSHEDPEVQFNWYVDGVEVHNAKTKPREEQFNSTFRVVSVLTVVHQDWLNGKEYKCKVSNKGLPAPIEKTISKTKGQPREPQVYTLPPSREEMTKNQVSLTCLVKGFYPSDIAVEWESNGQPENNYKTTPPMLDSDGSFFLYSKLTVDKSRWQQGNVFSCSVMHEALHNHYTQKSLSLSPGK
light: QSALTQPASVSGSPGQSITISCTGTSSDVGSYNVVSWYQQHPGKAPKLIIYEVSQRPSGVSNRFSGSKSGNTASLTISGLQTEDEADYYCCSYAGSSIFVIFGGGTKVTVLGQPKAAPSVTLFPPSSEELQANKATLVCLVSDFYPGAVTVAWKADGSPVKVGVETTKPSKQSNNKYAASSYLSLTPEQWKSHRSYSCRVTHEGSTVEKTVAPAECS
As for B1, the “average tumor volume at the time of the last treatment” value in the data set on OV-10-0050 PDX tumors (1 mg seribantumab twice weekly) is on record as 1.3±0.3; in the data set on OV-10-0050 PDX tumors (2.5 mg seribantumab twice weekly) it was 1.9±0.6; in the data set on OV-10-0050 PDX tumors (5 mg seribantumab twice weekly), 17.9±14.5; in the data set on OV-10-0050 PDX tumors (10 mg seribantumab twice weekly) it was 2.1±0.6. Further, the “day on which tumors started to regrow” value with OV-10-0050 PDX tumors (1, 2.5 and 5 mg seribantumab groups, treatment terminated day 27) is not above 73 days. In the data set on OV-10-0050 PDX tumors (dosage lower than that used in human trials), the tumor regression is reported as 100%. Moreover, the “tumor regrowth after cessation of treatment” value with OV-10-0050 PDX tumors (highest dose of seribantumab) was “blocked tumor regrowth after cessation of treatment”. Besides, in the data set on OV-10-0050 PDX tumors (seribantumab 1, 2.5, 5, 10 mg twice weekly), the tumor growth result is given as “significant tumor shrinkage at all doses tested”. Further, in the data set with OV-10-0050 PDX tumors (seribantumab, monitoring after cessation), the “tumor growth after treatment was stopped” value is on record as “largely repressed for 63 days”. Moreover, the “tumors that started to regrow at the end of the study” value in the data set on OV-10-0050 PDX tumors (two highest dose groups of seribantumab) is recorded as “one of eight”. For the same molecule, in data set [1] (43 advanced solid tumor patients), the maximum tolerated dose result is “not reached”. The “treatment-emergent adverse events having >20% incidence” value in data set [1] (43 patients, all grades regardless of relationship) was “fatigue, nausea, diarrhea, vomiting, decreased appetite, hyperglycemia, hypokalemia, and rash”. In addition, the hypomagnesemia entry in data set [1] (43 patients) is listed as “Grade 1”. Also, the “most commonly reported adverse events” value in data set [1] (43 patients) is “Grade 1 or 2 rash, nausea, diarrhea and fatigue”.
